Measurements: PMC3097235

Experiments:
[1] = immunofluorescence co-localisation with ER marker calnexin; settings: glycan lost; control: wild type
[2] = DOPA oxidase recovery after culture at 31°C; settings: glycan lost; control: wild type
[3] = Endo H resistance (ER exit), immunoblot; settings: glycan lost; control: wild type
[4] = immunofluorescence co-localisation with ERGIC-53, nocodazole-treated cells; settings: glycan lost; control: wild type
[5] = DOPA oxidase specific activity, cells at 37°C; settings: glycan lost; control: wild type
[6] = pulse-chase IP with or without kifunensine; settings: glycan lost; control: wild type (accumulates with kifunensine)
[7] = pulse-chase IP of wild type, degradation; settings: glycan changed form; control: untreated
[8] = pulse-chase, DTT accessibility of disulfides, non-reducing SDS-PAGE; settings: glycan lost; control: wild type

B1: human tyrosinase: Δ2 (protein)
parent chain: MLLAVLYCLLWSFQTSAGHFPRACVSSKNLMEKECCPPWSGDRSPCGQLSGRGSCQNILLSNAPLGPQFPFTGVDDRESWPSVFYNRTCQCSGNFMGFNCGNCKFGFWGPNCTERRLLVRRNIFDLSAPEKDKFFAYLTLAKHTISSDYVIPIGTYGQMKNGSTPMFNDINIYDLFVWMHYYVSMDALLGGSEIWRDIDFAHEAPAFLPWHRLFLLRWEQEIQKLTGDENFTIPYWDWRDAEKCDICTDEYMGGQHPTNPNLLSPASFFSSWQIVCSRLEEYNSHQSLCNGTPEGPLRRNPGNHDKSRTPRLPSSADVEFCLSLTQYESGSMDKAANFSFRNTLEGFASPLTGIADASQSSMHNALHIYMNGTMSQVQGSANDPIFLLHHAFVDSIFEQWLRRHRPLQEVYPEANAPIGHNRESYMVPFIPLYRNGDFFISSKDLGYDYSYLQDSDPDSFQDYIKSYLEQASRIWSWLLGAAMVGAVLTALLAGLVSLLCRHKRKQLPEEKQPLLMEKEDYHSLYQSHL
[1]
  localisation_or_trafficking: changes
[2]
  stability_or_folding: decreases
[3]
  localisation_or_trafficking: abolishes
[4]
  localisation_or_trafficking: no change
[5]
  enzymatic_activity, percent_of_wt: decreases, The remaining mutants show intermediate activity, ranging from 25% to 30%

B2: human tyrosinase: Δ4 (protein)
parent chain: MLLAVLYCLLWSFQTSAGHFPRACVSSKNLMEKECCPPWSGDRSPCGQLSGRGSCQNILLSNAPLGPQFPFTGVDDRESWPSVFYNRTCQCSGNFMGFNCGNCKFGFWGPNCTERRLLVRRNIFDLSAPEKDKFFAYLTLAKHTISSDYVIPIGTYGQMKNGSTPMFNDINIYDLFVWMHYYVSMDALLGGSEIWRDIDFAHEAPAFLPWHRLFLLRWEQEIQKLTGDENFTIPYWDWRDAEKCDICTDEYMGGQHPTNPNLLSPASFFSSWQIVCSRLEEYNSHQSLCNGTPEGPLRRNPGNHDKSRTPRLPSSADVEFCLSLTQYESGSMDKAANFSFRNTLEGFASPLTGIADASQSSMHNALHIYMNGTMSQVQGSANDPIFLLHHAFVDSIFEQWLRRHRPLQEVYPEANAPIGHNRESYMVPFIPLYRNGDFFISSKDLGYDYSYLQDSDPDSFQDYIKSYLEQASRIWSWLLGAAMVGAVLTALLAGLVSLLCRHKRKQLPEEKQPLLMEKEDYHSLYQSHL
[1]
  localisation_or_trafficking: changes
[2]
  stability_or_folding: decreases
[3]
  localisation_or_trafficking: abolishes
[4]
  localisation_or_trafficking: no change
[5]
  enzymatic_activity, percent_of_wt: decreases, The remaining mutants show intermediate activity, ranging from 25% to 30%

B3: human tyrosinase: Δ3 (protein)
parent chain: MLLAVLYCLLWSFQTSAGHFPRACVSSKNLMEKECCPPWSGDRSPCGQLSGRGSCQNILLSNAPLGPQFPFTGVDDRESWPSVFYNRTCQCSGNFMGFNCGNCKFGFWGPNCTERRLLVRRNIFDLSAPEKDKFFAYLTLAKHTISSDYVIPIGTYGQMKNGSTPMFNDINIYDLFVWMHYYVSMDALLGGSEIWRDIDFAHEAPAFLPWHRLFLLRWEQEIQKLTGDENFTIPYWDWRDAEKCDICTDEYMGGQHPTNPNLLSPASFFSSWQIVCSRLEEYNSHQSLCNGTPEGPLRRNPGNHDKSRTPRLPSSADVEFCLSLTQYESGSMDKAANFSFRNTLEGFASPLTGIADASQSSMHNALHIYMNGTMSQVQGSANDPIFLLHHAFVDSIFEQWLRRHRPLQEVYPEANAPIGHNRESYMVPFIPLYRNGDFFISSKDLGYDYSYLQDSDPDSFQDYIKSYLEQASRIWSWLLGAAMVGAVLTALLAGLVSLLCRHKRKQLPEEKQPLLMEKEDYHSLYQSHL
[1]
  localisation_or_trafficking: changes
[2]
  stability_or_folding: decreases
[3]
  localisation_or_trafficking: abolishes
[4]
  localisation_or_trafficking: no change
[5]
  enzymatic_activity, percent_of_wt: decreases, The remaining mutants show intermediate activity, ranging from 25% to 30%

B4: human tyrosinase: Δ1 (protein)
parent chain: MLLAVLYCLLWSFQTSAGHFPRACVSSKNLMEKECCPPWSGDRSPCGQLSGRGSCQNILLSNAPLGPQFPFTGVDDRESWPSVFYNRTCQCSGNFMGFNCGNCKFGFWGPNCTERRLLVRRNIFDLSAPEKDKFFAYLTLAKHTISSDYVIPIGTYGQMKNGSTPMFNDINIYDLFVWMHYYVSMDALLGGSEIWRDIDFAHEAPAFLPWHRLFLLRWEQEIQKLTGDENFTIPYWDWRDAEKCDICTDEYMGGQHPTNPNLLSPASFFSSWQIVCSRLEEYNSHQSLCNGTPEGPLRRNPGNHDKSRTPRLPSSADVEFCLSLTQYESGSMDKAANFSFRNTLEGFASPLTGIADASQSSMHNALHIYMNGTMSQVQGSANDPIFLLHHAFVDSIFEQWLRRHRPLQEVYPEANAPIGHNRESYMVPFIPLYRNGDFFISSKDLGYDYSYLQDSDPDSFQDYIKSYLEQASRIWSWLLGAAMVGAVLTALLAGLVSLLCRHKRKQLPEEKQPLLMEKEDYHSLYQSHL
[1]
  localisation_or_trafficking: changes
[2]
  stability_or_folding: decreases
[3]
  localisation_or_trafficking: decreases
[4]
  localisation_or_trafficking: no change
[5]
  enzymatic_activity, percent_of_wt: decreases, The remaining mutants show intermediate activity, ranging from 25% to 30%

B5: human tyrosinase: Δall (protein)
parent chain: MLLAVLYCLLWSFQTSAGHFPRACVSSKNLMEKECCPPWSGDRSPCGQLSGRGSCQNILLSNAPLGPQFPFTGVDDRESWPSVFYNRTCQCSGNFMGFNCGNCKFGFWGPNCTERRLLVRRNIFDLSAPEKDKFFAYLTLAKHTISSDYVIPIGTYGQMKNGSTPMFNDINIYDLFVWMHYYVSMDALLGGSEIWRDIDFAHEAPAFLPWHRLFLLRWEQEIQKLTGDENFTIPYWDWRDAEKCDICTDEYMGGQHPTNPNLLSPASFFSSWQIVCSRLEEYNSHQSLCNGTPEGPLRRNPGNHDKSRTPRLPSSADVEFCLSLTQYESGSMDKAANFSFRNTLEGFASPLTGIADASQSSMHNALHIYMNGTMSQVQGSANDPIFLLHHAFVDSIFEQWLRRHRPLQEVYPEANAPIGHNRESYMVPFIPLYRNGDFFISSKDLGYDYSYLQDSDPDSFQDYIKSYLEQASRIWSWLLGAAMVGAVLTALLAGLVSLLCRHKRKQLPEEKQPLLMEKEDYHSLYQSHL
[6]
  other: kifunensine rescue from degradation: abolishes

B6: human tyrosinase: Δ(5,6,7) (protein)
parent chain: MLLAVLYCLLWSFQTSAGHFPRACVSSKNLMEKECCPPWSGDRSPCGQLSGRGSCQNILLSNAPLGPQFPFTGVDDRESWPSVFYNRTCQCSGNFMGFNCGNCKFGFWGPNCTERRLLVRRNIFDLSAPEKDKFFAYLTLAKHTISSDYVIPIGTYGQMKNGSTPMFNDINIYDLFVWMHYYVSMDALLGGSEIWRDIDFAHEAPAFLPWHRLFLLRWEQEIQKLTGDENFTIPYWDWRDAEKCDICTDEYMGGQHPTNPNLLSPASFFSSWQIVCSRLEEYNSHQSLCNGTPEGPLRRNPGNHDKSRTPRLPSSADVEFCLSLTQYESGSMDKAANFSFRNTLEGFASPLTGIADASQSSMHNALHIYMNGTMSQVQGSANDPIFLLHHAFVDSIFEQWLRRHRPLQEVYPEANAPIGHNRESYMVPFIPLYRNGDFFISSKDLGYDYSYLQDSDPDSFQDYIKSYLEQASRIWSWLLGAAMVGAVLTALLAGLVSLLCRHKRKQLPEEKQPLLMEKEDYHSLYQSHL
[6]
  other: kifunensine rescue from degradation: decreases

B7: human tyrosinase: kifunensine (protein)
parent chain: MLLAVLYCLLWSFQTSAGHFPRACVSSKNLMEKECCPPWSGDRSPCGQLSGRGSCQNILLSNAPLGPQFPFTGVDDRESWPSVFYNRTCQCSGNFMGFNCGNCKFGFWGPNCTERRLLVRRNIFDLSAPEKDKFFAYLTLAKHTISSDYVIPIGTYGQMKNGSTPMFNDINIYDLFVWMHYYVSMDALLGGSEIWRDIDFAHEAPAFLPWHRLFLLRWEQEIQKLTGDENFTIPYWDWRDAEKCDICTDEYMGGQHPTNPNLLSPASFFSSWQIVCSRLEEYNSHQSLCNGTPEGPLRRNPGNHDKSRTPRLPSSADVEFCLSLTQYESGSMDKAANFSFRNTLEGFASPLTGIADASQSSMHNALHIYMNGTMSQVQGSANDPIFLLHHAFVDSIFEQWLRRHRPLQEVYPEANAPIGHNRESYMVPFIPLYRNGDFFISSKDLGYDYSYLQDSDPDSFQDYIKSYLEQASRIWSWLLGAAMVGAVLTALLAGLVSLLCRHKRKQLPEEKQPLLMEKEDYHSLYQSHL
[7]
  degradation_or_half_life: increases

B8: human tyrosinase: Δ7 (protein)
parent chain: MLLAVLYCLLWSFQTSAGHFPRACVSSKNLMEKECCPPWSGDRSPCGQLSGRGSCQNILLSNAPLGPQFPFTGVDDRESWPSVFYNRTCQCSGNFMGFNCGNCKFGFWGPNCTERRLLVRRNIFDLSAPEKDKFFAYLTLAKHTISSDYVIPIGTYGQMKNGSTPMFNDINIYDLFVWMHYYVSMDALLGGSEIWRDIDFAHEAPAFLPWHRLFLLRWEQEIQKLTGDENFTIPYWDWRDAEKCDICTDEYMGGQHPTNPNLLSPASFFSSWQIVCSRLEEYNSHQSLCNGTPEGPLRRNPGNHDKSRTPRLPSSADVEFCLSLTQYESGSMDKAANFSFRNTLEGFASPLTGIADASQSSMHNALHIYMNGTMSQVQGSANDPIFLLHHAFVDSIFEQWLRRHRPLQEVYPEANAPIGHNRESYMVPFIPLYRNGDFFISSKDLGYDYSYLQDSDPDSFQDYIKSYLEQASRIWSWLLGAAMVGAVLTALLAGLVSLLCRHKRKQLPEEKQPLLMEKEDYHSLYQSHL
[8]
  stability_or_folding: decreases
[1]
  localisation_or_trafficking: changes
[2]
  stability_or_folding: abolishes
[3]
  localisation_or_trafficking: abolishes
[4]
  localisation_or_trafficking: no change
[5]
  enzymatic_activity, percent_of_wt: abolishes
[6]
  other: kifunensine rescue from degradation: no change

B9: human tyrosinase: Δ6 (protein)
parent chain: MLLAVLYCLLWSFQTSAGHFPRACVSSKNLMEKECCPPWSGDRSPCGQLSGRGSCQNILLSNAPLGPQFPFTGVDDRESWPSVFYNRTCQCSGNFMGFNCGNCKFGFWGPNCTERRLLVRRNIFDLSAPEKDKFFAYLTLAKHTISSDYVIPIGTYGQMKNGSTPMFNDINIYDLFVWMHYYVSMDALLGGSEIWRDIDFAHEAPAFLPWHRLFLLRWEQEIQKLTGDENFTIPYWDWRDAEKCDICTDEYMGGQHPTNPNLLSPASFFSSWQIVCSRLEEYNSHQSLCNGTPEGPLRRNPGNHDKSRTPRLPSSADVEFCLSLTQYESGSMDKAANFSFRNTLEGFASPLTGIADASQSSMHNALHIYMNGTMSQVQGSANDPIFLLHHAFVDSIFEQWLRRHRPLQEVYPEANAPIGHNRESYMVPFIPLYRNGDFFISSKDLGYDYSYLQDSDPDSFQDYIKSYLEQASRIWSWLLGAAMVGAVLTALLAGLVSLLCRHKRKQLPEEKQPLLMEKEDYHSLYQSHL
[1]
  localisation_or_trafficking: changes
[2]
  stability_or_folding: decreases
[3]
  localisation_or_trafficking: abolishes
[4]
  localisation_or_trafficking: no change
[5]
  enzymatic_activity, percent_of_wt: abolishes
